This note sets out measurements from paper PMC8464830.

Holding throughout (experiment): SPR
(In general: SPR reads the build-up and loss of mass on a sensor chip optically.)

The target in assay [1] is HIV-1 MA protein from clade D (94UG114.1), full-length (HIV-1 clade D (94UG114.1)).
Assay [2] has as its target HIV-1 MA protein from clade B (NL4-3), full-length (HIV-1 clade B (NL4-3)).
Assay [3] addresses HIV-1 MA protein from clade B (LAI), full-length (HIV-1 clade B (LAI)).

As usually defined, the Kd is the free concentration of one partner at which half of the binding sites on the other are occupied at equilibrium, for simple one-to-one binding. For the substance “human Calmodulin-1 (from UniProt P0DP23 1-149) (natural protein)”, the Kd was determined as 33.3 µM in assay [1], 27.6 µM in assay [2] and 49 µM in assay [3].
